Test results from patent US6509447B1, “G protein chimeras and methods of screening compounds” (Glaxo Welcome Inc., priority 1997, dated 2003).

Columns and labels:
[1] = molecular target: T1, purinergic nucleotide receptor, P2Y2 (Homo sapiens, UniProt P41231); test: Reverse halo assay for FUS1-HIS3 expression, MMY9 cells, P2Y2; type: cell-based; details: MMY9 cells with pRS314-GPA1 and P2Y2 receptor, 100 nmol UTP
T1 construct: expressed in transfected cells; host or cells: Saccharomyces cerevisiae strains MMY9 and MMY11, plasmid pDT-PGK-P2Y2
Procedure: (§1) Assay for FUS1-HIS3 Expression. Reverse halo assays were carried out by growing MMY9 cells to early stationary phase (OD600≈4) in liquid SC-glucose (2%) medium lacking tryptophan and uracil. A uniform layer of cells (5×10^7) was plated to 22.5 cm by 22.5 cm bioassay dishes (Nunc) in 100 ml SC-glucose agar (1%) equilibrated to 50° C. This medium lacked tryptophan, uracil and histidine, and was supplemented with 10 mM 3-aminotriazole, and buffered to pH 7.0 with 0.1M sodium phosphate. Antibiotic discs were placed on the solidified agar, and a volume of agonist solution (1-5 μl) was applied to each disc. Plates were incubated at 30° C. for 3 days.
(§2) The four receptors were: the melatonin ML1B receptor, the serotonin 5HT1A receptor, the somatostatin SST2 receptor and the purinergic nucleotide receptor, P2Y2. […] Activation of the pheromone response pathway was monitored with two integrated reporter genes: […] allowing a growth readout in medium lacking histidine, and FUS1-lacZ allowing a β-galactosidase readout. […] Agonist-dependent activation of FUS1-HIS3 was determined by reverse halo assay in which agonists were applied to the filter discs in the arrangement shown in panel A, in quantities as follows: 3 nmol of somatostatin-14 (S-14); 40 nmol of melatonin (Mel); 3 nmol of α-factor; 100 nmol of UTP; 40 nmol of serotonin (5-HT). […]

[2] = molecular target: T2, serotonin 5HT1A receptor (Homo sapiens, UniProt P08908); test: Reverse halo assay for FUS1-HIS3 expression, MMY9 cells, 5-HT1A; type: cell-based; details: MMY9 cells with pRS314-GPA1 and 5-HT1A receptor, 40 nmol serotonin
T2 construct: expressed in transfected cells; host or cells: Saccharomyces cerevisiae strains MMY9 and MMY11, plasmid pDT-PGK-5-HT1A
T2 sequence (P08908 1-422): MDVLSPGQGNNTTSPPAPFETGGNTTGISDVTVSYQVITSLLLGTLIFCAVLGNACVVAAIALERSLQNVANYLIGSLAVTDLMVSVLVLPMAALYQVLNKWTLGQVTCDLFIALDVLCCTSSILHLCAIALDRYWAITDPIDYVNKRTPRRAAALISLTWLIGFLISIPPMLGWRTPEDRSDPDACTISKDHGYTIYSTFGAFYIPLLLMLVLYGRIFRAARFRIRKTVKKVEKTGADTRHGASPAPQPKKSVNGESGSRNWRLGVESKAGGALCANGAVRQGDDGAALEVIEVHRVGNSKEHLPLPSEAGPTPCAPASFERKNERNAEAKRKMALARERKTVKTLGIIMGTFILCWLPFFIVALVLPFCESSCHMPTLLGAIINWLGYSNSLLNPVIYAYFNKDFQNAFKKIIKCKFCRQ
Procedure: as §1, §2

[3] = test system: purinergic nucleotide P2Y2 receptor; test: CPRG assay, MMY11 cells expressing P2Y2 receptor plus Gα subunit; type: cell-based, human; set-up: key: weak activation insufficient to carry out curve-fitting was detected; NC: no coupling was detected
Procedure: Assay for combined FUS1-lacZ and FUS1-HIS3 Expression. In vivo assays of reporter gene induction (CPRG assays) were carried out by suspending cells to 0.02 OD600 in 200 μl SC-glucose (2%) lacking tryptophan, uracil and histidine. This medium was supplemented with agonists, and additionally 10 mM 3-aminotriazole and the β-galactosidase (lacZ) substrate chlorophenolred-β-D-galactopyranoside (CPRG; Boehringer) to a concentration of 0.1 mg/ml. To visualise the colour change reaction, the medium was buffered to pH 7 with 0.1 M sodium phosphate. The assay was conducted in a 96-well microtitre plate format. Plates were incubated for 24 hours without agitation, and absorbance at 570 nm was determined using a Victor microtitre plate reader (Wallac). EC50 values (+/−standard error) were estimated by curve-fitting, using the Robosage software package.
MMY11 was used in an experiment in which cells were transformed with pairs of plasmids as before, one to express a Gα subunit and the other a receptor expression construct. […] Where pheromone response pathway activation was detected, the agonist concentration required to yield a half-maximal response (EC50+/−standard error; all values in nM except where otherwise indicated) was determined by curve-fitting, and is shown in Table 4A. Where no coupling was detected, this is also indicated (NC).

T1 sequence (P41231 whole entry): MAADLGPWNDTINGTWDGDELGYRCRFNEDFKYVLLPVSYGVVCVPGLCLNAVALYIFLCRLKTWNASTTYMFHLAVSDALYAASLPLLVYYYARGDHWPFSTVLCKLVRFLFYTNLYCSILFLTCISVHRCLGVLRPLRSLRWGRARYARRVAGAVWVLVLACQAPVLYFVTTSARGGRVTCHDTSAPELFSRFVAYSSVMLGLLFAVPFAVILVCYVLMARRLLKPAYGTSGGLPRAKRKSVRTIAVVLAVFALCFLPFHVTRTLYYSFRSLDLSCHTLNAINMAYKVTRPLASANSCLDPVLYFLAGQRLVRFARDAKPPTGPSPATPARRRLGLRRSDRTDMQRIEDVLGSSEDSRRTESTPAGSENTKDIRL
Sequence of purinergic nucleotide P2Y2 receptor (P41231 1-347 limits assumed): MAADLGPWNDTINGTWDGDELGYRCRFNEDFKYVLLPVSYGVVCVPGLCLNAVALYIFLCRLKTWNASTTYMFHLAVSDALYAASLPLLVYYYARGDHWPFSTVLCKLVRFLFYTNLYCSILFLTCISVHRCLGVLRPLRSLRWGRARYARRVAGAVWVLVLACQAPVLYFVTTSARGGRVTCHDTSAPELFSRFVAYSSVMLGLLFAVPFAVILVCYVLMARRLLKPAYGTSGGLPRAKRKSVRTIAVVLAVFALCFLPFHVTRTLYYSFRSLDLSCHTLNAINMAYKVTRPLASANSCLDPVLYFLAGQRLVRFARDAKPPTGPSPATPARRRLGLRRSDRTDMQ

B1: Gpa1p: endogenous yeast Gα subunit, product of the GPA1 gene (protein, UniProt P08539 2-472, looked up)
Guanine nucleotide-binding …: GCTVSTQTIGDESDPFLQNKRANDVIEQSLQLEKQRDKNEIKLLLLGAGESGKSTVLKQLKLLHQGGFSHQERLQYAQVIWADAIQSMKILIIQARKLGIQLDCDDPINNKDLFACKRILLKAKALDYINASVAGGSDFLNDYVLKYSERYETRRRVQSTGRAKAAFDEDGNISNVKSDTDRDAETVTQNEDADRNNSSRINLQDICKDLNQEGDDQMFVRKTSREIQGQNRRNLIHEDIAKAIKQLWNNDKGIKQCFARSNEFQLEGSAAYYFDNIEKFASPNYVCTDEDILKGRIKTTGITETEFNIGSSKFKVLDAGGQRSERKKWIHCFEGITAVLFVLAMSEYDQMLFEDERVNRMHESIMLFDTLLNSKWFKDTPFILFLNKIDLFEEKVKSMPIRKYFPDYQGRVGDAEAGLKYFEKIFLSLNKTNKPIYVKRTCATDTQTMKFVLSAVTDLIIQQNLKKIGII
agonist-dependent activation of FUS1-HIS3 (halo of cell growth) [1]: responded to the agonist UTP | agonist-dependent activation of FUS1-HIS3 (halo of cell growth) [2]: did not activate FUS1-HIS3 in response to the agonist serotonin | coupling class where no EC50 could be fitted [3]: weak
